Measurements published in patent US20130203680A1, “FOLATE CONJUGATES FOR TREATING INFLAMMATION OF THE EYE” (ENDOCYTE, INC., priority 2010, published 2013).

Tests used:
[1] = Pharmacokinetic analysis
Excerpt: Table printed on a drawing sheet, Fig. 15C
Title: Pharmacokinetic analysis
The patent's description of the figure: FIG. 15. Pharmacokinetics of EC0746 and potential metabolites aminopterin (AMT) and AMT hydrazide (EC0470) in Rats. Panel A. Plasma concentrations (nmol/L) of EC0746, AMT and AMT hydrazide following single subcutaneous EC0746 (500 nmol/kg) administration. Panel B. Plasma concentrations (nmol/L) of AMT following single subcutaneous AMT (500 nmol/kg) administration. c. Pharmacokinetic analysis of the results of (a.) and (b.).
First reader's note: Each column is an analyte detected in rat plasma after dosing the test compound named in row 1; values are means of n=3.

[2] = system: RAW264.7 cells; assay: XTT cell viability / proliferation of RAW264.7 cells; format: cell-based, murine
Description: (§1) For XTT cell viability and TNF-α inhibition assays, RAW264.7 cells in 96-well plates were treated with vehicle (culture medium) or 10-fold serial dilutions of EC0746 without or with 100-fold excess free folate. After 2 h incubation, the drug-containing media were replaced and the cells were allowed to incubate further for 70 h. Four hours prior to the end of incubation, LPS was added to the treated cells at a final concentration of 100 ng/mL. 100 μL of the culture supernatants were collected for TNF-α analysis using a commercial ELISA kit. See FIG. 2, Panel B. The cell viability was assessed by adding XTT (2,3-bis(2-methoxy-4-nitro-5-sulfo-phenyl)-2H-tetrazolium-5-carboxanilide) to the remaining medium for an additional 4 h following the manufacturer's instructions (Roche Applied Science, Indianapolis, Ind.) See FIG. 2, Panel A. Both results were expressed as % absorbance (minus background) relative to untreated control in triplicates.
(§2) RAW264.7 cells in 96-well plates were treated with vehicle (culture medium) or 10-fold serial dilutions of EC0932 without or with 100-fold excess free folate. […] The cell viability was assessed by adding XTT (2,3-bis(2-methoxy-4-nitro-5-sulfo-phenyl)-2H-tetrazolium-5-carboxanilide) to the remaining medium for an additional 4 h following the manufacturer's instructions (Roche Applied Science, Indianapolis, Ind.). […]

[3] = Plasma pharmacokinetics after a single subcutaneous dose of EC0746 or aminopterin
Description: Female Lewis rats with rounded tip jugular vein catheters (Harlan) were fed regular rodent diet and used in this study. The animals were given a single subcutaneous dose of EC0746 at 500 nmol/kg. Whole blood samples (300 μl) were collected from the animals at the following time points: 1 min, 10 min, 30 min, 1 h, 2 h, 3 h, 4 h, and 8 h after injection. The blood samples were placed into anti-coagulant tubes containing 1.7 mg/mL of K3-EDTA and 0.35 mg/mL of N-Maleoyl-beta-alanine (0.35 mg/mL). Plasma samples were obtained by centrifugation for 3 min at ˜2,000 g and stored at −80° C. The amount of EC0746 and its released base drugs (EC0470 & aminopterin) were determined by HPLC using the EC0746 injection solution as the standard (see FIG. 4). […] A similar method was used to determine the plasma pharmacokinetics of aminopterin (see FIG. 5).
Thus, the plasma concentrations of EC0746 and two primary metabolites, AMT and AMT hydrazide, were determined by LC/MS/MS after a single subcutaneous EC0746 administration. […] For comparison, the pharmacokinetics of subcutaneously dosed AMT (500 nmol/kg) was also examined (FIG. 15b).

[4] = system: LPS-stimulated TNF-α production in RAW264.7 cells; assay: LPS-stimulated TNF-α production in RAW264.7 cells (ELISA); format: cell-based, murine; conditions: 72 h incubations
Description: as §1, §2

[5] = target: folate receptors (FR-β) of CHO cells (Homo sapiens, UniProt P14207); conditions: 3H-folic acid
[6] = Serum protein binding; format: in vitro ADME
[7] = target: folate receptors (FR-α) of KB cells (Homo sapiens, UniProt P15328); conditions: FR-α positive, 3H-folic acid
[8] = Maximum tolerated dose in folate-deficient rats; format: in vivo, rat
Description: Healthy rats were administered a subcutaneous injection of the indicated dose of aminopterin or EC0746 biweekly for 2 weeks; control animals, no treatment, 100 nmole/kg aminopterin, 50 nmole/kg aminopterin, 500 nmole/kg EC0746, or 2000 nmole/kg EC0746. The animals were weighed daily. See FIG. 6, Panels A and B. A dose of […] of aminopterin in folate deficient rats is above the MTD; therefore, the projected MTD of EC0746 would be <0.5 μmol/kg based solely on ˜20% free drug release shown in the previous Example. However, the MTD of EC0746 is actually 2.0 μmol/kg, which is equivalent to 0.4 μmol/kg, or ˜8× higher than the MTD for free aminopterin. On a molar basis for total aminopterin, the MTD is 40× higher.
Since the toxicity of antifolates can be easily masked by rodent diets enriched with folate, healthy rats on a folate-deficient diet (Harlan) were used to determine the maximum-tolerated-dose levels (MTD) of EC0746, AMT and MTX. The animals were given biweekly injections of EC0746, AMT, and MTX for two weeks. The MTD dose was defined as the dose that had caused at least 13-14% weight loss combined with clinical signs of stress and at least one animal in the >MTD dose group needed to be euthanized. Standard hematologic and blood chemistry parameters were examined as needed along with histopathology. The MTDs of EC0746, MTX and AMT were determined to be 2000, 1000, and 50 nmol/kg, respectively. At above the MTD dose level, the main toxicities of EC0746 were similar to those of AMT and MTX, including manifested gastrointestinal distress (diarrhea), swollen muzzle, immunosuppression (bone marrow, thymus), low white-blood-cell count, low platelet count, and infections. […] Overall, EC0746 was approximately 40-fold less toxic than AMT and 2-fold less toxic than MTX on an equimolar basis in these folate-deficient animals; however, its toxicity profile at above MTD levels was not dissimilar from that of AMT and MTX.

[9] = target: T1, DHFR (Mus musculus, UniProt P00375); assay: DHFR activity in lysate of treated RAW264.7 cells; format: cell-based, murine; conditions: 10 μM, 2-h pulse, 22-h chase
T1 construct: endogenous in cells; host or cells: RAW264.7
T1 sequence (P00375 1-187): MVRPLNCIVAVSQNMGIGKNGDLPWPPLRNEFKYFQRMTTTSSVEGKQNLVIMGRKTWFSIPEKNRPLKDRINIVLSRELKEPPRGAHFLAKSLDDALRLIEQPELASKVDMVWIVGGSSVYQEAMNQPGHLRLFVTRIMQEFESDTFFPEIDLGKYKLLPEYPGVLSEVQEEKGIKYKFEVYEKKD
Description: RAW264.7 cells were treated with vehicle (medium), EC0746 (100 nM) without or with 100-fold excess free folate, aminopterin (AMT, 100 nM), methotrexate (MTX, 100 nM), or excess free folate alone (10 μM). […] At the end of incubation, the cells were lysed and the DHFR activity in cell lysates was measured using a commercial DHFR assay kit (Sigma-Aldrich, Saint Louis, Mo.).

[10] = after single s.c. dose of EC0746 500 nmole/kg
[11] = rat, in vivo, subcutaneous, folate-deficient rats, biweekly injections for two weeks

folate receptors (FR-α) of KB cells, sequence (P15328 25-234): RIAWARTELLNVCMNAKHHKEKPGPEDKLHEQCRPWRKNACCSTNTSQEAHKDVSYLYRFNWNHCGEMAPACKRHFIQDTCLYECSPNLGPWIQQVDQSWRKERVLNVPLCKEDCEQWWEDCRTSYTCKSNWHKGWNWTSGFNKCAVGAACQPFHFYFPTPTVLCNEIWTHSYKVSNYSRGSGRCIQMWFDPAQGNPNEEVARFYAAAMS
folate receptors (FR-β) of CHO cells, sequence (P14207 17-230, species assumed): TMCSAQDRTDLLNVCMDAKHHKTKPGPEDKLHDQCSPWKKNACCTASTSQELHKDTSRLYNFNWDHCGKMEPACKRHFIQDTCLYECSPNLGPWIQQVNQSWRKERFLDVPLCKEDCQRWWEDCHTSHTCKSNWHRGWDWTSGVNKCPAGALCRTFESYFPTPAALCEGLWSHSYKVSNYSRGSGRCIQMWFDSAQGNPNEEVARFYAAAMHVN

Nc1nc(N)c2nc(CNc3ccc(C(=O)N[C@@H](CCC(=O)O)C(=O)O)cc3)cnc2n1 [AMT | AMT]
AUC0-t | [1]: 61.3 nmol/min/mL
CL or CL_F | [1]: 1.7 mL/min
Cmax | [1]: 601 nM
T1/2(elimination) | min [1]: 140 min
Tmax | min [1]: 30 min
Vz or Vz_F | mL [1]: 328 mL

NNC(=O)CC[C@H](NC(=O)c1ccc(NCc2cnc3nc(N)nc(N)c3n2)cc1)C(=O)O [EC0470, aminopterin gamma-hydrazide, reference compound]
cell proliferation in the XTT assay, potency of potential EC0746 metabolites ([2]; 72 h incubations): equally potent
Tmax of released base drug ([3]; released from EC0746 after single s.c. dose 500 nmol/kg): ~60 min
delay of plasma peak from the EC0746 Cmax ([3]; released from EC0746 in EC0746-dosed rats): 30 min
LPS-stimulated TNF-α production, potency of potential EC0746 metabolites [4]: equally potent

N=c1[nH]c(N)nc2ncc(CNc3ccc(C(=O)N[C@@H](CCC(=O)NNC(=O)OCCSSC[C@H](NC(=O)[C@H](CCC(=O)NC[C@H](O)[C@@H](O)[C@H](O)[C@H](O)CO)NC(=O)[C@H](CCC(=O)O)NC(=O)[C@H](CCC(=O)NC[C@H](O)[C@@H](O)[C@H](O)[C@H](O)CO)NC(=O)[C@H](CCC(=O)O)NC(=O)[C@H](CCC(=O)NC[C@H](O)[C@@H](O)[C@H](O)[C@H](O)CO)NC(=O)CC[C@H](NC(=O)c4ccc(NCc5cnc6nc(N)[nH]c(=O)c6n5)cc4)C(=O)O)C(=O)O)C(=O)O)cc3)nc12 [EC0746]
relative folate receptor affinity (folic acid = 1) [5]: 0.270
fraction unbound [6]: ~0.54
relative folate receptor affinity (folic acid = 1) [7]: 0.50
EC50 ([2]; 2 hour treatment followed by 72 hours in treatment-free medium): 0.33 nM
Area Under Curve for free drug [3, 10]: 7.3 nmol·min/mL
Cmax for free drug (aminopterin+aminopterin hydrazide) [3, 10]: 34 nM
Cmax for free drug as share of the total [3, 10]: 9.6%
time at which Cmax for free drug (aminopterin+aminopterin hydrazide) is reached [3, 10]: 60 min
half-life ([3]; female, Lewis, rat, in vivo, sc, 500 nmol/kg): ~35 min
Cmax ([3]; female, Lewis, rat, in vivo, sc, 500 nmole/kg): 321 nM
bioavailability after subcutaneous administration ([3]; rats, s.c.): bioavailable
Area Under Curve for EC0746 ([3]; single s.c. dose of EC0746 500 nmole/kg): 32.5 nmol·min/mL
fold less toxic than AMT on an equimolar basis ([8]; folate-deficient animals): approximately 40 fold
fold less toxic than MTX on an equimolar basis ([8]; folate-deficient animals): ~2 fold
MTD (free drug equivalent) fold higher than the MTD for free aminopterin ([8]; rat, in vivo): ~8 ×
MTD fold higher than aminopterin on a molar basis for total aminopterin ([8]; rat, in vivo): 40 ×
MTD at 2 weeks ([8]; rat, in vivo, sc, s.c. biweekly for 2 weeks): 2 µmol/kg
MTD at 2 weeks [8, 11]: 2 µmol/kg
gastrointestinal-associated toxicities at MTD dose ([8]; rats, at MTD): less gastrointestinal-associated toxicities than AMT and MTX

Nc1nc(N)c2nc(CNc3ccc(C(=O)N[C@@H](CCC(=O)O)C(=O)O)cc3)cnc2n1 [aminopterin, reference compound]
elimination half-life of metabolite released from EC0746 ([3]; female, Lewis, rat, in vivo, sc): ~117 min
delay of plasma peak from the EC0746 Cmax ([3]; rat, in vivo): 30 min
MTD ([8]; folate-deficient rats, biweekly injections for two weeks): 50 nmol/kg

Nc1nc2ncc(CNc3ccc(C(=O)N[C@@H](CCC(=O)O)C(=O)O)cc3)nc2c(=O)[nH]1 [folic acid]
effect of folic acid alone on DHFR activity [9]: did not have any impact

CN(Cc1cnc2nc(N)nc(N)c2n1)c1ccc(C(=O)N[C@@H](CCC(=O)O)C(=O)O)cc1 [methotrexate, reference compound]
relative folate receptor affinity (folic acid = 1) [5]: 0.005
relative folate receptor affinity (folic acid = 1) [7]: 0.018
MTD at 2 weeks [8, 11]: 1 µmol/kg
